Results: patent publication US6461867

B1: OVA-10N peptide (peptide)
peptide: LESIINFEKL
modifications: not checked
B2: OVA-10C peptide (peptide)
peptide: SIINFEKLTE
modifications: not checked
B3: OVA-9C peptide (peptide)
peptide: SIINFEKLT
modifications: not checked
B4: OVA-8 peptide (ovalbumin 257-264) (peptide)
peptide: SIINFEKL
modifications: not checked
B5: OVA-24 peptide (peptide)
peptide: EQLESIINFEKLTEWTSSNVMEER
modifications: not checked

Target: T1, soluble H-2K^b (K^bsol), empty heterodimer of truncated K^b heavy chain and murine β-2 microglobulin (murine), P01901
T1 chain 1: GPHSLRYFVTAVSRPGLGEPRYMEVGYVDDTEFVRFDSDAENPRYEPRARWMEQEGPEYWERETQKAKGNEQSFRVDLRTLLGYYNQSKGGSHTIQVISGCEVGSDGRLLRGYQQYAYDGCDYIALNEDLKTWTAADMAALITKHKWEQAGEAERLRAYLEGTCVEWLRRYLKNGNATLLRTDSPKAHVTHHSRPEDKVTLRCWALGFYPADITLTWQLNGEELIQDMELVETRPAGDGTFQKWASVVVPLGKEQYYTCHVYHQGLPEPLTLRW
T1 chain 2: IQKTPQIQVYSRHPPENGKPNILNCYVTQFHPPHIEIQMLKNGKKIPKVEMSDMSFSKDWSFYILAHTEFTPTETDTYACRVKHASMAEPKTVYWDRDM

Row | Binder | Kd [nM]
1 | B1 | 280
2 | B2 | 14
3 | B3 | 11
4 | B4 | 4.1
5 | B5 | 71000
